Measured values taken from the nanobody polyreactivity screen of Harvey et al. (2022).

Experiment: yeast display, Sf9 membrane polyspecificity reagent, FACS + sequencing; frameworks hold sequencing errors
Outline: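 Genes from sorted yeast were amplified by colony PCR, read by MiSeq 2 × 250 sequencing and filtered on CDR length. These cells carried a synthetic nanobody library in Saccharomyces cerevisiae BJ5465 and were sorted by FACS into low and high (top ~1%) gates on anti-HA and streptavidin fluorescence. Polyreactivity is labelled according to the gate of origin.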

Sequence	polyreactivity (PSR sort gate)
QVQLVESGGGLVQAGGNLRLSCAASGFKFTSYAMGCYIQAPGKERELVAAISTSGDRTYYADSVKGRFTISRDNAKNTVYLQMNSLQPEDTAVYYSAVVRPRSVVRYDSWGQGTQVTVSS	high polyreactivity
QVQLVESGGGLVQAGGSLRLSCAASGRTFDYYAMGWYRQAPGKERELVAAITLSAGRTYYADSVKGRFTISRDNAKNTVYLQMNSLKPEDTAVYYCAARFRRLQRFYYWGQGTQVTVSS	high polyreactivity
QVQLVESGGGLVQAGGSLRLSCAASGSIFYRNVMGWYRQAPGKERELVATISRGGTTNYADSVKGRFTISRDNAKNTVYLQMNSLKPEDTAVYYCALKQSYYFGSYFYGHEYYYWGPGTQVTVSS	low polyreactivity
QVQLVESGGGLVQAGGSLRLSCAASGFTFRDYAMGWYRQAPGKERELVAAITRSGGRTYYADSVKGRFTISRDNAKNTVYLQMNSLKPEDTAVYYCNALDYLYGGIYLEEDYWGQGTQVTVSS	low polyreactivity
QVQLVESGGGLVQAGGSLRLSCAASGSTFYPNAMGWYRQAPGKERELVAAITTSGGSTYYADSVKGRCTISRDNAKNTVYLQMNSLKPEDTAVYYCAAEVRDRGWEPYGPIYDYWGQGTQVTVSS	high polyreactivity
QVQLVESGGGLVQAGGSLRLSCAASGRTFYSNAMGWYRESPGKERELVAAISRSGGTTYYADSVKGRFTISRDHAKNTVSLLMNSLKPEDTAVYYCNTLRYGTTGKYDYWGQGTQVTVSS	high polyreactivity
QVQLVESGGGLVQAGGSLRLSCAASGSTLAYNAMGWYRQAPGKERELVATINFSGGSTYYADSVKGRFTISRDNSKNTVYLQMNSLKPEDTAVYYCNARGYWQYSPTKFDYWGQGTQVTVSS	low polyreactivity
EVQLVESGGGLVQAGGSLRLSCAASGRIFYTNTMGWYRPAPGKERELVATGSTYYADSVKGRFTISRDNAKNTVYLQMDSLKPEDTAVYYCAKRGDFLTKRYESGSAASDYLGQGTQVTVSS	low polyreactivity
QVQLVESGGGLVQAGGSLRLSCAASGRIFGFYAMGLYRQAPGKERELVARITLSGGRTYYADSVKGRFTISRDNAKNTVYLQMNSLKPEDTAVYYCAADSIGRLWGYGYWGQGTQVTVSS	high polyreactivity
QVQLVESGGGLVQAGGSLRLRCAASGSTFHIYAMGWYRQAPGKERELVAAISKGGGNTYYADSVKGRFTISRDNAKNPVYLQLNSLKPEDTAGYYCAAVPTRYRSYSYTYGGYNYWGQGTQVTVSS	high polyreactivity
QVQLVESGGGLVQAGGSLRLSCAASGSIFSRNVMGGSRQAPGKERELVAAITGSGGRTYYADSVKGRFTISRDNAKNTVYLQMNSLKPEDTAVYYCAKSRPGPYDYWGQGTQVTVSS	high polyreactivity
QVQLVESGGGLFQAGGSLRLSCAASGSTFTTNAMGWYRQAPGKERELVAAITKRGGTTSYADSVKGRFTISRDNAKNSVYLLMNSLKPADTAVYYCAADVEVSWAYDAWWYGGGYYWGQCTQVTVSS	high polyreactivity
HVQLVESGGGLVQAGGSLRLSCAASGFTFPANAMGWYRQAPGKERELVAAISSSGGTYYADSVMGRFTISRDNAKNTVYLQMTSLKQEDTAVYYCAAYRFKYYYWGQGTQVSVSS	high polyreactivity
QVQLVESGGGLVQAGGSLRLSCAASGSIYHVYALGWYRQAPGKERELVATISSGGSTYYADSVKGRFTISRDNEKNTVYLQMNSLKPEDTAVYYCNADWFLYGGWYGYGYWGQGTQVTVSS	low polyreactivity
QVQLVESGGGLVQAGGSLRLSCAASGFTFRIYAMGWYRQAPGKERELVATISWSGTSTYYADSVKGRFTISRDYAKNTVFFQMNSLNPEDTAVYYCAKDGVSFYWLNKYYYWGQGTQVTVSS	low polyreactivity
QVQLVESGGGLVQAGGSLRLSCAASGSIFNINAMGWYRQAPGKERELVAAITTSGGRTYYADSVKGRFTISRDNAKNTVYLQMNSLKPEVTAVYYCATSHYGSTGNYWGQGTQVTVSS	low polyreactivity
QVQLVESGGGLVQAGGSLRLSCAPSGRTFSENAMGWYRQAPGKERELVAAISGSGGRTYYADSVMGRFTISRDNAKNSVFLQMNSLKPEVTAVYYCAKVTRYGSTYDYWGQGTQVTVSS	high polyreactivity
